Experiments:
Assay in all cases: SPR
Protein G variant GLM = molecular target: Protein G variant GLM
Protein G variant GF = molecular target: Protein G variant GF
Protein G variant GD = molecular target: Protein G variant GD
[1] = molecular target: Protein G-Fc (Fc specific Protein-G variant)

| Kd (Protein G variant GLM) [nM] | Kd (Protein G variant GF) [nM] | Kd (Protein G variant GD) [nM] | Kd [1] [nM] | Substance |
| --- | --- | --- | --- | --- |
| 8.9 | 1.9 | 6.4 |  | Fab^H, wild-type human (Herceptin) Fab scaffold with a kappa light chain |
|  |  |  | 3.8 | human Fc (Fc domain of IgG) (domain or fragment) |
